According to US20250368752A1 (AMPSOURCE BIOPHARMA SHANGHAI, published 2025):
Blank lines part the entries; values can stand above or below the binder they belong to.

Assays:
[1] = biological target: TFPI expressed on HUVECs (human) (UniProt P10646); experiment: cell-based or functional assay
[2] = biological target: TFPI expressed on HUVECs (human) (UniProt P10646); experiment: flow cytometry on HUVEC cells, AF647 goat anti-human IgG detection
human TFPI protein = biological target: T1, human TFPI protein (human, UniProt P10646 29-282, limits assumed); experiment: ELISA, human TFPI coated at 0.1 ug/mL, HRP goat anti-human IgG detection
T1 construct: Soluble human TFPI, coated on ELISA plates (6.1) and used in solution in the FXa and TF/FVIIa/FX assays (6.2, 6.3)
T1 sequence (looked up): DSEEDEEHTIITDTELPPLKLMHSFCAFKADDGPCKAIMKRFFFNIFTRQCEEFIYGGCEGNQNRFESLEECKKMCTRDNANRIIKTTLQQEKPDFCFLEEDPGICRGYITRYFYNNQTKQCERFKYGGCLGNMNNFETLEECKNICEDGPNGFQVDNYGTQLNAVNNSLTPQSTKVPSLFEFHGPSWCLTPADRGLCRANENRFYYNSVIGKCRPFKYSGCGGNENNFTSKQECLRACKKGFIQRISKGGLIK
Method: Human TFPI was coated onto the ELISA plate at a concentration of 0.1 μg/mL, with 100 μL per well, and incubated overnight at 4° C. The coating solution was then discarded, and the wells were blocked with 200 μL of PBS solution containing 1% BSA (PBSB) per well at 37° C. for 1 hour. The plate was washed with PBS solution containing 0.05% Tween-20 (PBST). A series of diluted concentrations of AB8D were added, with 100 μL per well, and incubated for 1 hour at 37° C. The plates were washed with PBST, and then HRP-labeled goat anti-human IgG (H+L) (Jackson Laboratory) was added as the detection antibody, with incubation for 1 hour at 37° C. After washing three times with 0.05% PBST, TMB was added, with 100 μL per well, and the color was developed at room temperature for 5 minutes. The reaction was terminated by adding 0.2 M H₂SO₄, with 50 μL per well. The absorbance values were read at dual wavelengths of 450/620 nm using a microplate reader. Using OD450 nm-OD620 nm as the Y-axis and antibody concentration as the X-axis, the data were analyzed using GraphPad Prism 6 software with a four-parameter logistic curve fitting to calculate the EC₅₀ value.

[3] = biological target: T2, human TFPI with a His tag (human, UniProt P10646 29-282, limits assumed); experiment: BLI (ForteBio Octet), His-tagged human TFPI on Ni-NTA sensors, antibody 3.125-100 nM
T2 construct: Coupled to Ni-NTA sensors at 10 ug/mL for BLI; not shown: His tag
T2 sequence (looked up): T1 sequence (looked up)
Method: The binding affinity constant of the purified mouse monoclonal antibody against human TFPI (mAb3-71) to human TFPI was determined using biolayer interferometry (BLI) with the ForteBio Octet RED&QK system from PALL Corporation. The concentration gradient for multi-channel parallel quantitative analysis was set to 3.125, 6.25, 12.5, 25, 50, and 100 nM, and human TFPI with a His tag at 10 μg/mL was coupled to Ni-NTA sensors.

- neutralization of TFPI on HUVEC cells (FVIIa/FX added, S-2765, OD405 nm) [1]: 117 ng/mL
- EC50 [2]: 0.0286 µg/mL
- EC50 (human TFPI protein): 0.00165 µg/mL
B1: humanized anti-human TFPI antibody AB8D (antibody, V domains shown)
VH: EVQLVQSGAELKKPGASVKLSCKASGYTFTSYWMHWVRQTPGQGLEWIGEIKPDQGRINYNEKFKTRATLTADKSTSTAYMELSSLRSEDTAVYYCARSSVVDVAMDYWGQGTTVTVSS
VL: EIVLTQSPATLSLSPGERATLSCSASSSVSSSYLYWYQQKPGQAPRLWISGTSILASGVPARFSGSGSGTKYTLTISSLEPEDFAVYFCHQWSHYPFTFGQGTKLEIK
notes: Full-length humanized IgG of about 145 kD, expressed in CHO cells

- Kd [3]: 4.54 pM
- koff [3]: 1.31e-06 s⁻¹
- kon [3]: 289000 M⁻¹ s⁻¹
B2: mouse monoclonal antibody against human TFPI, mAb3-71 (antibody, V domains shown)
VH: QVQLQQPEAELMKPGASVKLSCKASGYTFTSYWMHWVKQRPGQGLEWIGEIKPDNGRINYNEKFKTKATLAVDKSSSTAYMQLNSLTSGDSAVYYCARSSVVDVAMDYWGQGTSVSVSS
VL: QIVLTQSPAIMSASPGEKVTLTCSASSSVSSSYLYWYQQKPGSSPKLWISGTSILASGVPARFSGSGSGTSYSLTISSMEAEDTASYFCHQWSHYPFTFGSGTKLEIK
notes: also called hybridoma cell line #3-71
